Legend:
[1] = tested on: GST-NR2F6 fusion protein, full-length, S83A mutant
[2] = tested on: GST-NR2F6 fusion protein, full-length, wild-type
[3] = tested on: GST-NR2F6 fusion protein, full-length, S89A mutant
GST-NR2F6 fusion protein, full-length, S89A mutant, sequence (chain, as listed by the source S89A): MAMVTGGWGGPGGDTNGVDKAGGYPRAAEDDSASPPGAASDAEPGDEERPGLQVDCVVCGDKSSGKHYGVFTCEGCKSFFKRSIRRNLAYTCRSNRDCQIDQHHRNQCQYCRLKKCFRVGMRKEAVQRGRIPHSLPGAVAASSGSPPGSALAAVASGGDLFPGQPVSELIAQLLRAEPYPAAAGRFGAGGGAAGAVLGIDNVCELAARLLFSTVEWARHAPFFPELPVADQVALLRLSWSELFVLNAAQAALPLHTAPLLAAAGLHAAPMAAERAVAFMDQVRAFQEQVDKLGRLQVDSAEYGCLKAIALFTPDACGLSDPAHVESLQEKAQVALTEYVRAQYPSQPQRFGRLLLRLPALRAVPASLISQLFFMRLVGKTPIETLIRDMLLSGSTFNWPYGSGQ

GST-NR2F6 fusion protein, full-length, wild-type, sequence (chain, as listed by the source): as the sequence (chain, as listed by the source S89A) above, with A89S counted along it
recombinant PKCtheta, sequence (Q04759 whole entry): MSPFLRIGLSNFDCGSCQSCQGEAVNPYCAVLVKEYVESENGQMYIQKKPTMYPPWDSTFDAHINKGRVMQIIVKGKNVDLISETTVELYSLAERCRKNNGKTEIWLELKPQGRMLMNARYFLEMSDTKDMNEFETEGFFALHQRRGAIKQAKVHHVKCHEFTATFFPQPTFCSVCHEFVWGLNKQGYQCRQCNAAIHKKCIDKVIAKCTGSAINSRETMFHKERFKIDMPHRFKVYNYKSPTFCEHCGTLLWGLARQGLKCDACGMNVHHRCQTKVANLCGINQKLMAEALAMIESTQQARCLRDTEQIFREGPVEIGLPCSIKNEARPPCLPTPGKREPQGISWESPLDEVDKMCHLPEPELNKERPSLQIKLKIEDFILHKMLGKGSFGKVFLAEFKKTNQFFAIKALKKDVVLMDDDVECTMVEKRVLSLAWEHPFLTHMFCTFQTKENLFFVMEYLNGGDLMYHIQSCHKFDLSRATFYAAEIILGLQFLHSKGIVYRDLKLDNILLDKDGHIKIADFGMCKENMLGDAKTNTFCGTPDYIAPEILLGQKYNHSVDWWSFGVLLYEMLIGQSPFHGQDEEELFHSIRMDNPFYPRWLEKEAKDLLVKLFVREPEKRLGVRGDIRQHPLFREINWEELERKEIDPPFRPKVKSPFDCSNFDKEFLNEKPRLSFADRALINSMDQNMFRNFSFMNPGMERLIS
GST-NR2F6 fusion protein, full-length, S83A mutant, sequence (chain, as listed by the source S83A): as the sequence (chain, as listed by the source S89A) above, with S83A, A89S counted along it

Substance | phosphorylation (32P incorporation), in vitro protein kinase assay [1] | phosphorylation (32P incorporation), in vitro protein kinase assay [2] | phosphorylation (32P incorporation), in vitro protein kinase assay [3]
recombinant PKCalpha | This phosphorylation was lost after the predicted phosphorylation site at Ser-83 (but not at Ser-89) was mutated in the full-length NR2F6 protein | PKCalpha, delta and theta (but not PKCzeta or PKA) were able to phosphorylate recombinant NR2F6 in vitro | (but not at Ser-89)
recombinant PKCdelta | This phosphorylation was lost after the predicted phosphorylation site at Ser-83 (but not at Ser-89) was mutated in the full-length NR2F6 protein | PKCalpha, delta and theta (but not PKCzeta or PKA) were able to phosphorylate recombinant NR2F6 in vitro | (but not at Ser-89)
Protein kinase A (PKA) | – | (but not PKCzeta or PKA) | –
recombinant PKCtheta | This phosphorylation was lost after the predicted phosphorylation site at Ser-83 (but not at Ser-89) was mutated in the full-length NR2F6 protein | PKCalpha, delta and theta (but not PKCzeta or PKA) were able to phosphorylate recombinant NR2F6 in vitro | (but not at Ser-89)

Reference: patent publication US20110236427
